The target in test [1] is human immunoglobulin G preparation separated from human plasma (Gammagard, Baxter) (human). Kind of test: SPR (Biacore 3000), human IgG on CM5 chip, ligand flowed at 16-128 nM, 1:1 fit, 25 C.
In test [2] the target is Gamma globulin (Nichiyaku), used as a human IgG (human). As to the kind of experiment: affinity chromatography, dynamic binding capacity at 5% breakthrough; ligand on HiTrap NHS agarose at 6.4 mg/mL-gel.
The target is the same in test [3]. Kind of test: affinity chromatography, dynamic binding capacity at 5% breakthrough; ligand on HiTrap NHS agarose at 9.5 mg/mL-gel.
Test [4] has the same target. As to the kind of experiment: affinity chromatography, dynamic binding capacity at 5% breakthrough; ligand on HiTrap NHS agarose at 12.5 mg/mL-gel.
For test [5] the target is unchanged. As to the kind of experiment: affinity chromatography, dynamic binding capacity at 5% breakthrough; ligand on cross-linked cellulose beads at 11.0 mg/mL-gel.
For test [6] the target is unchanged. As to the kind of experiment: affinity chromatography, dynamic binding capacity at 5% breakthrough; ligand on HiTrap NHS agarose at 6.8 mg/mL-gel.
Test [7] shares this target. As to the kind of experiment: affinity chromatography, dynamic binding capacity at 5% breakthrough; ligand on HiTrap NHS agarose at 14.1 mg/mL-gel.
In test [8] the target is human immunoglobulin G preparation separated from human plasma (Gammagard, Baxter) (human). As to the kind of experiment: SPR (Biacore 3000), human IgG on CM5 chip, as in Example 3.
Test [9] addresses Gamma globulin (Nichiyaku), used as a human IgG (human). Kind of test: affinity chromatography, dynamic binding capacity at 5% breakthrough; ligand on HiTrap NHS agarose at 5.1 mg/mL-gel.
Test [10] shares this target. Kind of test: affinity chromatography, dynamic binding capacity at 5% breakthrough; ligand on HiTrap NHS agarose at 9.0 mg/mL-gel.
Test [11] shares this target. As to the kind of experiment: affinity chromatography, dynamic binding capacity at 5% breakthrough; ligand on HiTrap NHS agarose at 5.7 mg/mL-gel.
The target is the same in test [12]. As to the kind of experiment: affinity chromatography, dynamic binding capacity at 5% breakthrough; ligand on HiTrap NHS agarose at 8.8 mg/mL-gel.
Test [13] has the same target. Kind of test: affinity chromatography, dynamic binding capacity at 5% breakthrough; ligand on HiTrap NHS agarose at 10.9 mg/mL-gel.
Test [14] shares this target. Kind of test: affinity chromatography, dynamic binding capacity at 5% breakthrough; ligand on cross-linked cellulose beads at 11.6 mg/mL-gel.
Test [15] has the same target. Kind of test: affinity chromatography, dynamic binding capacity at 5% breakthrough; ligand on HiTrap NHS agarose at 4.8 mg/mL-gel.
For test [16] the target is unchanged. Kind of test: affinity chromatography, dynamic binding capacity at 5% breakthrough; ligand on HiTrap NHS agarose at 9.4 mg/mL-gel.
The target is the same in test [17]. Kind of test: affinity chromatography, dynamic binding capacity at 5% breakthrough; ligand on HiTrap NHS agarose at 6.9 mg/mL-gel.
The target is the same in test [18]. Kind of test: affinity chromatography, dynamic binding capacity at 5% breakthrough; ligand on HiTrap NHS agarose at 13.5 mg/mL-gel.

From patent US20160168209A1 come the findings set out here.

In test [1], “C-K04R/K07R/G29A/S33R/K35R/K42R/K49Q/K50R.5d (designed binder)” gave a Ka of 1.5e+09 M⁻¹. The 5% antibody dBC worked out at 45.8 mg/mL-gel in test [2], 55.3 mg/mL-gel in test [3], 61.3 mg/mL-gel in [4] and 46.1 mg/mL-gel in test [5].

“C-K04R/K07R/G29A/S33R/K35R/K42R/K49Q/K50R.4d (designed binder)” showed a Ka in test [1] of 1e+09 M⁻¹. Moreover, the 5% antibody dBC in test [6] worked out at 42.6 mg/mL-gel; in [7] it was 62.1 mg/mL-gel.

“C-K04R/K07R/G29A/S33L/K35R/K42R/K49R/K50R/(K58R except for C-terminal).3d (designed binder)” returned a Ka in [8] of 2.2e+09 M⁻¹. Further, the 5% antibody dBC in test [9] came to 49.1 mg/mL-gel; in test [10], 66.2 mg/mL-gel.

The substance C-G29A/S33E.5d (designed binder) returned a Ka in test [1] of 6.3e+09 M⁻¹. Also, the 5% antibody dBC turned out to be 38.3 mg/mL-gel in test [11], 50.3 mg/mL-gel in [12], 54.4 mg/mL-gel in test [13] and 36.8 mg/mL-gel in test [14].

The substance “C-K04R/K07R/G29A/S33L/K35R/K42R/K49R/K50R.3d (designed binder)” yielded a Ka in [1] of 2.1e+09 M⁻¹. Further, the results for the 5% antibody dBC in test [15] and in [16] were 56.5 mg/mL-gel and 73.4 mg/mL-gel, respectively.

As to “C-K04R/K07R/G29A/S33R/K35R/K42R/K49Q/K50R(C-terminal K58R).4d (designed binder)”, in test [1], the Ka is 1.1e+09 M⁻¹. In addition, the figures for the 5% antibody dBC in [17] and in test [18] were 41.8 mg/mL-gel and 62.1 mg/mL-gel, respectively.
